Experimental findings from article PMC3887093 are described below.

First the molecules themselves.
B1: DBP-RII with C-terminally fused GFP, wild type, on the surface of HEK293T cells [Plasmodium vivax] / Duffy antigen/receptor for chemokines (DARC) on human red blood cells [human (endogenous in RBCs)] (parent)
chain 1: ASNTVMKNCNYKRKRRERDWDCNTKKDVCIPDRRYQLCMKELTNLVNNTDTNFHRDITFRKLYLKRKLIYDAAVEGDLLLKLNNYRYNKDFCKDIRWSLGDFGDIIMGTDMEGIGYSKVVENNLRSIFGTDEKAQQRRKQWWNESKAQIWTAMMYSVKKRLKGNFIWICKLNVAVNIEPQIYRWIREWGRDYVSELPTEVQKLKEKCDGKINYTDKKVCKVPPCQNACKSYDQWITRKKNQWDVLSNKFISVKNAEKVQTAGIVTPYDILKQELDEFNEVAFENEINKRDGAYIELCVCSVEEAKKNTQEVVTNVDN
chain 2: MGNCLHRAELSPSTENSSQLDFEDVWNSSYGVNDSFPDGDYGANLEAAAPCHSCNLLDDSALPFFILTSVLGILASSTVLFMLFRPLFRWQLCPGWPVLAQLAVGSALFSIVVPVLAPGLGSTRSSALCSLGYCVWYGSAFAQALLLGCHASLGHRLGAGQVPGLTLGLTVGIWGVAALLTLPVTLASGASGGLCTLIYSTELKALQATHTVACLAIFVLLPLGLFGAKGLKKALGMGPGPWMNILWAWFIFWWPHGVVLGLDFLVRSKLLLLSTCLAQQALDLLLNLAEALAILHCVATPLLLALFCHQATRTLLPSLPLPEGWSSHLDTLGSKS

In this assay the parent is B1. Briefly: red blood cell rosetting (RBC binding) assay with DBP-RII-GFP expressed on HEK293 cells. To be noted: parent: 100, read off a plot.
For chain 1 I57R, the percent of parent is 72 % Binding.

On to chain 1 A73L, for which the percent of parent came out at 0 % Binding.

Turning to chain 1 D56R, the percent of parent was determined as 42 % Binding.

As for chain 1 D56W, the percent of parent stood at 59 % Binding.

Take chain 1 T58W: the percent of parent stood at 55 % Binding.

On to chain 1 Q148D, for which the percent of parent was 18 % Binding.

On to chain 1 Q148Y, for which the percent of parent is 66 % Binding.

In the case of chain 1 Y155A, the percent of parent was 0 % Binding.

Take chain 1 Y155L: the percent of parent was found to be 0 % Binding.
